Four molecules from paper PMC11514447, “Eukaryotic initiation factor 4B is a multi-functional RNA binding protein that regulates histone mRNAs” can be followed below.

The target in the data set is eIF4B (UniProt P23588 1-611). Kind of data set: fluorescence polarization; 2 mM ATP, 2 mM Mg2+; 20 mM HEPES/KOH pH 7.5, 100 mM KCl, 1 mM TCEP, 2 mM ATP, 2 mM MgCl2, 40 nM FAM-RNA, 60 min, 25 C; Kd values only in figures (one-site fit, n=3). The note with it: protein: recombinant. Background: In fluorescence polarisation assays a small probe gives low polarisation when free and higher when bound to something large.
Sequence of eIF4B (P23588 whole entry): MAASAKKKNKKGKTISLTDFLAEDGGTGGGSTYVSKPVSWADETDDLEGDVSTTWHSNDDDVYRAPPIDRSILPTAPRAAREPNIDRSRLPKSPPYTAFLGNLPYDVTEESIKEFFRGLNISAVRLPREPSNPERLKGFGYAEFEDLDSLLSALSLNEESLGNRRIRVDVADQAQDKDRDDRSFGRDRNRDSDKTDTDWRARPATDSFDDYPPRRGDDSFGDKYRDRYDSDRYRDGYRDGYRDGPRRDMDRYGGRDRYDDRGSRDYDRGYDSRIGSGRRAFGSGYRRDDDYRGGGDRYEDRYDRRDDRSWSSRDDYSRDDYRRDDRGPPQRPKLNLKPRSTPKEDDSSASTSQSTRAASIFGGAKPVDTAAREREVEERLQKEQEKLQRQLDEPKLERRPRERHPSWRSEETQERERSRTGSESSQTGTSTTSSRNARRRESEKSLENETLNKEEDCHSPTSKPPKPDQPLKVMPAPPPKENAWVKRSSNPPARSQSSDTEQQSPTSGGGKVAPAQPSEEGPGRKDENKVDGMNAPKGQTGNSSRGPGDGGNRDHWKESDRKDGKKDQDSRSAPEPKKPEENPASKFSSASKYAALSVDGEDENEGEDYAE

For GGCUGGCGUGAGGGUCUCCCUUGAUCUGAGAAUG (ssRNA) [CDK4-5'UTR], the binding result is “binds”.

B1: His1-FL (structured_RNA)
RNA: UCCUUUGGCCAACUGCUUAGAAGCCCAACACAACCCAAAGGCUCUUUUCAGAGCCACCCA
B1: the binding result (3' hairpin, 6-bp stem, 4-nt loop) is “binds”. For the molecule UCCUUUGGCCAACUGCUUAGAAGCCCAACACAACCCAAA (ssRNA) [His1-ssRNA], the binding result is “binds”. On the same count and under the same terms, the same measure for GCUGCACUCUUAUUUUCAUUUUCAACCAAA (ssRNA) [His4-ssRNA]: “binds”.
